Laboratory results taken from patent US20260116960A1 (SHANGHAI HONGCHENG BIOPHARMACEUTICAL, published 2026).

How the values were obtained:
[1] = biological target: T1, human PD-1 protein (Acro, Catalog No. PD1-H5221) (human, UniProt Q15116 25-167); experiment: ELISA, plate coated with human PD-1 protein
T1 construct: Bought protein; also called human PD1-his; not shown: his tag
Description: (§1) ELISA was used to determine the activity of the trispecific antibodies binding to the PD-1 protein: 1 μg/mL human PD-1 protein (Acro, Catalog No.: PD1-H5221) was used to coat a high-adsorption 96-well ELISA plate and incubated at 4° C. overnight. On the next day, the plate was washed three times with PBST solution and blocked with 1% BSA-PBS solution at 37° C. for 1 hour. At the same time, 3-fold gradient dilutions of the antibody were prepared with 1% BSA-PBS solution, with a starting concentration of 10 nM. The antibodies of each gradient concentration were added to the blocked 96-well ELISA plate at 100 µL/well in triplicate and incubated at 37° C. for 1 hour. The plate was then washed three times with 0.05% PBST solution, and 100 μL/well of HRP-labeled secondary antibody (Sigma, Catalog No.: A0170) diluted at 1:5000 was added to the ELISA plate and incubated at 37° C. for 1 hour. The plate was washed three times with 0.05% PBST solution and developed with TMB. The absorbance of the 96-well ELISA plate at 450 nm was detected by an ELISA reader. The OD₄₅₀ value was fitted using a four-parameter model to calculate the EC₅₀ value of each antibody binding to PD-1.

[2] = biological target: human PD-1 protein (Acro, PD1-H5257) (human, UniProt Q15116 25-167); experiment: competitive ELISA, PD-1 coated, biotin-PD-L1 as labelled ligand
Chain of human PD-1 protein (Acro, PD1-H5257) (Q15116 25-167 limits assumed): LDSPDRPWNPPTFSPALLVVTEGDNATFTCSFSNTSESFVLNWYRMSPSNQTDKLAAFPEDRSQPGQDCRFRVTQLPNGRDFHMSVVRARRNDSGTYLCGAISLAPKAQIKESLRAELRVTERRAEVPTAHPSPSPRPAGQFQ
Description: The next day, the plate was washed three times with PBS solution and blocked with 1% BSA-PBS solution at 37° C. for 1 hour. […] 100 μL of the antibody-protein mixture was added to each well of the blocked 96-well ELISA plate and incubated at 37° C. for 1 hour. After washing four times with PBST, 100 μL of Strep-HRP (BD, Catalog No. 554066) diluted 1:5000 was added to each well of the ELISA plate and incubated at 37° C. for 1 hour. After washing 4 times with PBST, TMB was used for color development. The absorbance at 450 nm and 630 nm was detected by a microplate reader, and OD450-OD630 was calculated. The fluorescence intensity was fitted using a four-parameter model, and the IC₅₀ value of the blocking activity of each antibody was calculated.

[3] = biological target: T2, human PD-1 on the cell surface (human, UniProt Q15116 25-288); experiment: flow cytometry competition, 293T-hPD-1 cells, biotin-human PD-L1
T2 construct: whole, on cells; also called cell surface PD-1
T2 sequence (Q15116 25-288): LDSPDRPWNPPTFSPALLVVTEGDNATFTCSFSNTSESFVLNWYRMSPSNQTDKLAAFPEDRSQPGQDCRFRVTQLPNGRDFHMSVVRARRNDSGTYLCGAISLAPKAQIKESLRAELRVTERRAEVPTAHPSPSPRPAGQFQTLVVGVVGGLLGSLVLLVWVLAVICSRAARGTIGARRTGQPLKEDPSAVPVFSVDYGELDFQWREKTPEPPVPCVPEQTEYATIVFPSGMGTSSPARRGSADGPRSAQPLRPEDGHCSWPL
Description: 50 μL of antibody solution serially diluted 3-fold in FACS buffer was added in triplicate, with a starting concentration of 200 nM. After mixing, incubated at 4° C. for 60 minutes. After washing three times with FACS buffer, 100 μL/well of 1:800 diluted PE Streptavidin was added and incubated at 4° C. for 50 min. After washing three times with FACS buffer, 150 μL/well of PBS was added to resuspend the cells, and the fluorescence signal was detected on a flow cytometer (BECKMAN COULTER cytoFLEX). The four-parameter model was used to fit the binding activity and the IC₅₀ value of the blocking activity of each antibody was calculated.

[4] = biological target: T3, human VEGF165-his protein (Acro, Catalog No. VE5-H5248) (human, UniProt P15692-4 27-191); experiment: ELISA, plate coated with human VEGF165-his
T3 construct: Bought protein; also called hVEGF165-His; VEGFA; not shown: his tag
T3 sequence (P15692 other isoform, or with tags, fused parts or gaps limits assumed): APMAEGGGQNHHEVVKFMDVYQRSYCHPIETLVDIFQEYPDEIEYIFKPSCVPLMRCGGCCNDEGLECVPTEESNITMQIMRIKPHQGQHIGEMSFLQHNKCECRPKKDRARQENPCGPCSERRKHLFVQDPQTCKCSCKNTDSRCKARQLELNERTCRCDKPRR
Description: as §1
The binding activity of the trispecific antibodies to VEGFA protein was detected by ELISA method as described in Section 2.1. The used human VEGF165-his protein was purchased from Acro, Catalog No.: VE5-H5248.

[5] = biological target: T4, human CTLA-4 protein (Acro, Catalog No. CT4-H52H9) (human, UniProt P16410 36-161); experiment: ELISA, plate coated with human CTLA-4 protein
T4 construct: Bought protein
T4 sequence (P16410 36-161 limits assumed): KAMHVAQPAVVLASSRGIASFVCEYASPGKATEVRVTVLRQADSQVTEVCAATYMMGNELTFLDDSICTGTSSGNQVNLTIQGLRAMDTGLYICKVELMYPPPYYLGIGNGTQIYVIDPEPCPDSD

[6] = biological target: T5, human CTLA-4 on the cell surface (human, UniProt P16410 36-223); experiment: flow cytometry competition, 293T-hPD-1-hCTLA-4 cells (PD-1 co-expressed), biotin-human CD80
T5 construct: whole, on cells; also called CHO-hCTLA-4 cells; CHOK1-hCTLA4 cells
T5 sequence (P16410 36-223): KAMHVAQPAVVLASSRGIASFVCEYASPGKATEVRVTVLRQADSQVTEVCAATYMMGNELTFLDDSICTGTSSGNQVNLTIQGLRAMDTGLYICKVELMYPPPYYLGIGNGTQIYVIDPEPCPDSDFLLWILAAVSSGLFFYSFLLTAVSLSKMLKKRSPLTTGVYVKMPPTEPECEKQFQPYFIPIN
Description: PD-1 and CTLA-4 are co-expressed on functionally exhausted T cells in the tumor microenvironment, and the expression level of PD-1 is higher than that of CTLA-4. […] 200 μL of the cells were added to a 96-well U-bottom plate, approximately 1.4×10⁵ cells/well. After centrifugation at 300 g for 5 minutes, the supernatant was discarded. […] After washing three times with FACS buffer, 100 μL/well of 1:800 diluted PE Streptavidin was added and incubated at 4° C. for 50 min. After washing three times with FACS buffer, 150 μL/well of PBS was added to resuspend the cells, and the fluorescence signal was detected on a flow cytometer (BECKMAN COULTER cytoFLEX). The binding activity was fitted using a four-parameter model, and the IC₅₀ value of the blocking activity of each antibody was calculated.

T1 sequence (Q15116 25-167 limits assumed): as the sequence (Q15116 25-167 limits assumed) above

| Binder | EC50 [1] [nM] | IC50 [2] [nM] | IC50 [3] [nM] | EC50 [4] [nM] | EC50 [5] [nM] | IC50 [6] [nM] |
| --- | --- | --- | --- | --- | --- | --- |
| HC010-F15 (trispecific antibody, human IgG4 S228P, kappa, Knob-into-hole heterodimer; light: ipilimumab VL-kappa; also called H010-F15) heavy 1: QVQLVESGGGVVQPGRSLRLSCAASGFTFSSYTMHWVRQAPGKGLEWVTFISYDGNNKYYADSVKGRFTISRDNSKNTLYLQMNSLRAEDTAIYYCARTGWLGPFDYWGQGTLVTVSSASTKGPSVFPLAPCSRSTSESTAALGCLVKDYFPEPVTVSWNSGALTSGVHTFPAVLQSSGLYSLSSVVTVPSSSLGTKTYTCNVDHKPSNTKVDKRVESKYGPPCPPCPAPEFLGGPSVFLFPPKPKDTLMISRTPEVTCVVVDVSQEDPEVQFNWYVDGVEVHNAKTKPREEQFNSTYRVVSVLTVLHQDWLNGKEYKCKVSNKGLPSSIEKTISKAKGQPREPQVYTLPPCQEEMTKNQVSLWCLVKGFYPSDIAVEWESNGQPENNYKTTPPVLDSDGSFFLYSRLTVDKSRWQEGNVFSCSVMHEALHNHYTQKSLSLSLGAGGGGSGGGGSGGGGSGGGGSEVQLVESGGGLVQPGGSLRLSCAASGYTFTNYGMNWVRQAPGKCLEWVGWINTYTGEPTYAADFKRRFTFSLDTSKSTAYLQMNSLRAEDTAVYYCAKYPHYYGSSHWYFDVWGQGTLVTVSSGGGGSGGGGSGGGGSGGGGSDIQMTQSPSSLSASVGDRVTITCSASQDISNYLNWYQQKPGKAPKVLIYFTSSLHSGVPSRFSGSGSGTDFTLTISSLQPEDFATYYCQQYSTVPWTFGCGTKVEIK heavy 2: EVQLVESGGGLVQPGGSLRLSCAASGFTFSSYGMSWVRQAPGKCLEWVSTISGGGRDTYYPDSVKGRFTISRDNSKNTLYLQMNSLRAEDTAVYYCARQNGITWFADWGQGTLVTVSSGGGGSGGGGSGGGGSGGGGSDIQMTQSPSSLSASVGDRVTITCRASESVDNYGISFMNWYQQKPGKAPKLLIYAASNQGSGVPSRFSGSGSGTDFTLTISSLQPEDFATYYCQQSKEVPWTFGCGTKVEIKGGGGSGGGGSGGGGSGGGGSESKYGPPCPPCPAPEFLGGPSVFLFPPKPKDTLMISRTPEVTCVVVDVSQEDPEVQFNWYVDGVEVHNAKTKPREEQFNSTYRVVSVLTVLHQDWLNGKEYKCKVSNKGLPSSIEKTISKAKGQPREPQVCTLPPSQEEMTKNQVSLSCAVKGFYPSDIAVEWESNGQPENNYKTTPPVLDSDGSFFLVSRLTVDKSRWQEGNVFSCSVMHEALHNRFTQKSLSLSLGAGGGGSGGGGSGGGGSGGGGSEVQLVESGGGLVQPGGSLRLSCAASGYTFTNYGMNWVRQAPGKCLEWVGWINTYTGEPTYAADFKRRFTFSLDTSKSTAYLQMNSLRAEDTAVYYCAKYPHYYGSSHWYFDVWGQGTLVTVSSGGGGSGGGGSGGGGSGGGGSDIQMTQSPSSLSASVGDRVTITCSASQDISNYLNWYQQKPGKAPKVLIYFTSSLHSGVPSRFSGSGSGTDFTLTISSLQPEDFATYYCQQYSTVPWTFGCGTKVEIK light: not shown | 0.712 | 2.22 | 326 | 0.087 |  |  |
| HC010-F7 (trispecific antibody, human IgG4 S228P, kappa, light: CQ1-3/1-11 VL-kappa; also called H010-F7) heavy: not shown light: DIQMTQSPSSLSASVGDRVTITCRASESVDNYGISFMNWYQQKPGKAPKLLIYAASNQGSGVPSRFSGSGSGTDFTLTISSLQPEDFATYYCQQSKEVPWTFGGGTKVEIKRTVAAPSVFIFPPSDEQLKSGTASVVCLLNNFYPREAKVQWKVDNALQSGNSQESVTEQDSKDSTYSLSSTLTLSKADYEKHKVYACEVTHQGLSSPVTKSFNRGEC | 0.085 | 0.433 | 3.7 | 0.081 | 0.059 | 0.055 |
| HC010-F11 (trispecific antibody, human IgG4 S228P, kappa, light: CQ1-3/1-11 VL-kappa - (G4S)4 - 202F1 VHH; also called H010-F11) heavy: not shown light: DIQMTQSPSSLSASVGDRVTITCRASESVDNYGISFMNWYQQKPGKAPKLLIYAASNQGSGVPSRFSGSGSGTDFTLTISSLQPEDFATYYCQQSKEVPWTFGGGTKVEIKRTVAAPSVFIFPPSDEQLKSGTASVVCLLNNFYPREAKVQWKVDNALQSGNSQESVTEQDSKDSTYSLSSTLTLSKADYEKHKVYACEVTHQGLSSPVTKSFNRGECGGGGSGGGGSGGGGSGGGGSEVQLLESGGGLVQPGGSLRLSCAASGSIFSINHMAWYRQAPGKQRELVAGVNSRGTTNYVDSVKGRFTISRDNSKNTLYLQMNSLRAEDTAVYYCRALGGAVAAWGQGTLVTVSS | 0.114 | 0.83 | 5.58 | 0.125 | 0.044 | 0.076 |
